The values below come from the Immune Epitope Database (IEDB).

pIC50: −log10 of the molar value.

In one assay the target is HLA-A*02:01. Nature of the assay: IEDB peptide-MHC binding, cellular MHC/competitive/fluorescence; ≥ and ≤ were set here for values at or beyond the usual limits of such assays. Conditions: source organism: Mammarenavirus brazilense.
Regarding AINIALIAV, the pIC50 (as a rule, the negative decadic logarithm of the IC50, by convention in mol/L) was 5.08.

Still in this assay, the particulars now being: source organism: Vaccinia virus WR.
With NTCLRCSKL, the pIC50 was 4.61.
The same measure, in the same setting: as for WTVYLIKLI, the figure is 5.12.
Same read-out and setting: with LITTMDGDKL the figure was at most 4.15.
Consider ELEPSLATFI, for which the pIC50 is 4.95.
Same read-out and setting: with TVRSIITDA the figure was 4.99; with SVEPYTSNI, 4.76.
The same measure, in the same setting: with YIRNTLTEKI the figure was 4.42; with IIKKNDIVRV, 4.32; with QISQCQRINM, 4.72.
For the sequence TMPTYKHLI, the pIC50 is 4.56.
On the same count and under the same terms, as for SIDRLSLNRT, the figure is 5.29.
For NISTIQESFI, the pIC50 is at most 4.15.
Still for that read-out and setting: as for EVFHCMDILT, the figure is 4.83.
Consider KTLDFKSKKV, for which the pIC50 is 4.28.
Same read-out and setting: as for ILYKVRKNFT, the figure is 5.12; as for LTFLSGGDL, 4.72.
The same measure, in the same setting: as for LVNLIQAKT, the figure is 4.35; as for DLEKYFYGEI, at most 4.15.
For the sequence LIVRLNQCM, the pIC50 was 4.70.
For the sequence PTRTLDTAI, the pIC50 was at most 4.15.
MTENVEEDLA gave a pIC50 of 4.61.
As to PTNKLQAAV, the pIC50 is 5.19.
The same measure, in the same setting: as for DISMSLYKDL, the figure is 5.01; as for HASPTLFNA, 5.05; as for KITFALKKL, 4.75.
Sequence VIGASYISCT had a pIC50 of 4.75.
ITVTVTFNPV had a pIC50 of 5.19.
Take DVGYEVIGA: the pIC50 was 4.49.
Sequence MIVLITMLSI had a pIC50 of 5.21.
In turn, SIPKETNELT gave a pIC50 of at most 4.15.
The sequence FIVISPMGKL had a pIC50 of 4.70.
Still for that read-out and setting: as for PVDDGPDDET, the figure is 4.82; as for DTSCDFESVT, at most 4.15; as for NTDSEMDQRL, at most 4.15.
For FVKRLGPGT, the pIC50 was 4.40.
Same read-out and setting: as for SLKRNAEGI, the figure is at most 4.15; as for ETSFNDKQKV, at most 4.15; as for EVFINDNGIM, at most 4.15.
Sequence VAPMPTASTA had a negative logarithm of the IC50 (pIC50) of 4.60.
On the same count and under the same terms, with ELDTLAAEI the figure was 5.02; with GIVLSNTST, 4.70; with ILRSIEGEL, 5.05.
Regarding TIRVTSNGL, the pIC50 was 4.63.
Still for that read-out and setting: as for KALSDACKKI, the figure is 4.85; as for ETSFIFIET, 5.05.
IVIYPNFSKA had a pIC50 of 5.01.
Regarding VTSSGAIYKL, the pIC50 is 4.79.
The same measure, in the same setting: as for ITPDVIINST, the figure is at most 4.15; as for SINSATESDA, 4.49; as for EIFIRYGDA, 4.52.
Still for that read-out and setting: as for IVVELEPSLA, the figure is 5.04; as for LLTKSNNGT, 4.86; as for TASSDSLQT, 4.26.
The same measure, in the same setting: as for DVTAKSSFV, the figure is 5.07.
EIEEHMRQT: the negative logarithm of the IC50 (pIC50) was 4.41.
On the same count and under the same terms, as for PIKFIAEFL, the figure is 5.08.
Same read-out and setting: as for VTKQDELQAA, the figure is 4.85.
Same read-out and setting: as for NIHNHMIKV, the figure is 5.19; as for KVTINNLKMM, 4.45.
Take STLPNKSDVL: the pIC50 is 4.33.
Sequence AIMFKDDNII had a negative logarithm of the IC50 (pIC50) of 4.36.
On to YVGSYASNGI, for which the negative-log IC50 (pIC50) is 4.82.
The same measure, in the same setting: as for KVRIFINDRM, the figure is 4.40; as for PTMKIFYKHI, at most 4.15; as for GIKEDETVST, 4.38.
As for PMNVDNLIM, the pIC50 is 4.76.
As to SIPLMKRLT, the pIC50 was at most 4.15.
Sequence DAFSREYSMT showed a pIC50 of at most 4.15.
The same measure, in the same setting: as for VTKTDGIPIT, the figure is 4.56.
Same read-out and setting: with LIKLIEPVNA the figure was 4.25; with MIVLPNKVRI, at most 4.15; with RTKIPLSKV, at most 4.15.
The same measure, in the same setting: as for DIPVNNNIVL, the figure is at most 4.15; as for FTNKRTRGPL, 4.79; as for RTDTTICLSI, 4.96.
In turn, PTMNNAKLT had a pIC50 of 4.70.
Regarding KLKYFLGSGA, the pIC50 was 5.14.
Same read-out and setting: as for IVRLNQCMSA, the figure is 5.13.
Still for that read-out and setting: with DANVVSSSTI the figure was at most 4.15.
On the same count and under the same terms, with GILSNYVKT the figure was at most 4.15; with ITDAAVAVA, 5.07; with VVELEPSLAT, at most 4.15.
Sequence MQHPREENSI had a pIC50 of 4.56.
QMNARGVKV: the pIC50 was 5.29.
For the sequence VMETDRENA, the pIC50 is 5.09.
For the sequence MIKERRQITM, the pIC50 was 4.60.
WLTAVEHIPT had a pIC50 of 5.16.
Still for that read-out and setting: with PINAPIKTFM the figure was 5.12; with SVFYRGAENI, 4.68; with VIKCMIDEGA, 5.01.
Consider QQHPIVVLDA, for which the pIC50 was 4.84.
Turning to DVELFIKAL, the pIC50 was at most 4.15.
Same read-out and setting: with HLATPINSRI the figure was 5.10.
The sequence NMNYSDDYM had a pIC50 of 4.95.
In the case of TLSLSKQDI, the negative-log IC50 (pIC50) was 4.93.
Still for that read-out and setting: as for ATDPDADAI, the figure is 4.41.
VTKTDGIPI: the pIC50 was 5.07.
Regarding ILHRLHEILT, the negative-log IC50 (pIC50) was 4.90.
Still for that read-out and setting: with SMRLLHCVT the figure was at most 4.15; with IQGKNKRKRV, at most 4.15.
Still for that read-out and setting: as for GVKIRTKIPL, the figure is 4.90; as for ELFIKALSDA, 4.96; as for NAKCIEYVTL, 4.42.
On to NIGIVLSNT, for which the pIC50 was 4.84.
Same read-out and setting: as for GIAHLLEHLL, the figure is 5.13.
GVIFLISVI gave a pIC50 of 4.92.
On the same count and under the same terms, as for DQSIKIGDI, the figure is at most 4.15; as for TMKIFYKHI, at most 4.15.
Still for that read-out and setting: with DLYNGGRIDM the figure was 4.53.
The same measure, in the same setting: as for DAFSREYSM, the figure is 5.12.
HLLISFDST gave a pIC50 of 4.55.
Same read-out and setting: with PTLDNILGIL the figure was 4.20; with IVVYNPSTM, 4.25.
As to KAVIEYDDI, the pIC50 was 4.42.
Same read-out and setting: with PAVVYSTCT the figure was 5.26; with ELKTQSPDVL, 4.21; with VISLLSMIT, 5.30.
As for IVRCCAGDDI, the pIC50 is 4.97.
Still for that read-out and setting: with TAVNEEWLT the figure was 4.57.
Same read-out and setting: as for CTVPTMNNA, the figure is 4.79; as for ELMPIRTDTT, 4.93.
The same measure, in the same setting: with QIHLYYNSNI the figure was 4.31; with SVETITEKT, at most 4.15; with ALSDACKKIL, 4.75.
Consider IVISPMGKLT, for which the pIC50 is 4.28.
PTASSDSLQT gave a pIC50 of 4.78.
For VTKVNNYDDT, the pIC50 was at most 4.15.
The same measure, in the same setting: with LIANIHNHMI the figure was 5.22; with EIRDQYITA, at most 4.15.
STNGKIVMT gave a pIC50 of at most 4.15.
Consider EIPTRTLDTA, for which the pIC50 was 4.23.
With QQPIKKDCMV, the pIC50 is 4.73.
The sequence VVYNPSTMST showed a pIC50 of 4.24.
Sequence IAFSSGTVI had a pIC50 of 4.36.
The sequence VVRRTMLSDI had a negative-log IC50 (pIC50) of 5.07.
As to KVTINNLKM, the pIC50 was 5.24.
Sequence FINDRMKKDI gave a pIC50 of at most 4.15.
MVISLLSMIT gave a pIC50 of 5.01.
LTDSLSSQMT gave a negative logarithm of the IC50 (pIC50) of 4.93.
Still for that read-out and setting: as for DIGTVKDGRL, the figure is at most 4.15; as for RLSLNRTIVT, 5.06.
Still for that read-out and setting: as for TMSTPMTEYI, the figure is 5.10; as for VISLLSMITM, 4.96; as for DMIHNVIDDV, 4.70.
The same measure, in the same setting: as for TTTSEVVDM, the figure is 5.00.
For KLIIDREVVA, the pIC50 is 4.80.
The sequence IINRDIIVI gave a pIC50 of 4.97.
The same measure, in the same setting: as for EQEIESLEA, the figure is 4.58; as for SVVTLLCVL, 4.83.
The same measure, in the same setting: as for ELIAFSSGT, the figure is 5.27; as for EVSINVDST, at most 4.15.
Still for that read-out and setting: with FLDDSNKRKV the figure was 5.08; with IVMTPSPFYT, 5.19; with ATVMNNLSEL, 4.96.
Sequence PVKRIIDSEV gave a pIC50 of 4.47.
Still for that read-out and setting: as for NIKNDVVIL, the figure is at most 4.15; as for MVSIDEVAST, 4.43; as for LLVATDPDA, 4.76.
TVSTIDGRI gave a pIC50 of at most 4.15.
Sequence ILSIVGFRPT gave a pIC50 of 4.42.
The same measure, in the same setting: as for LVKWPLLNI, the figure is 5.04; as for VVSRHLTNDA, at most 4.15.
Still for that read-out and setting: with LVTKYPMDNV the figure was 4.89.
Same read-out and setting: as for GINQEDGIII, the figure is at most 4.15.
IVRDMLVNRM had a negative logarithm of the IC50 (pIC50) of 4.84.
Take STSITVNEV: the pIC50 is 4.90.
The same measure, in the same setting: with PVLPICVRT the figure was 5.14.
The sequence YIIRRSGCRI had a pIC50 of 4.37.
YIQETIRSDT gave a negative logarithm of the IC50 (pIC50) of 4.41.
Same read-out and setting: with AVCNLASVA the figure was 4.75; with KQQKKCKYCI, 4.25.
Consider TIQESFIRFT, for which the pIC50 was at most 4.15.
Still for that read-out and setting: with TIIERSKKFI the figure was 4.35; with VTLNASQYA, 5.30; with AQSKSSLLHA, 4.48.
The sequence ILKPRIDKTM showed a pIC50 of 4.31.
Consider RQLAKAIIT, for which the pIC50 was 5.01.
The same measure, in the same setting: as for LTAVEHIPTM, the figure is 5.11; as for DAYNIADAA, at most 4.15; as for NQHNIIVEHL, at most 4.15.
IQAKTKNFT had a pIC50 of at most 4.15.
VVSSSTIAT: the negative-log IC50 (pIC50) is 4.96.
As for TAVNEEWLTA, the pIC50 was 4.60.
With DLFPKQTIQT, the pIC50 is 4.89.
DMLNIMNKL: the pIC50 was 5.29.
The sequence VIYPNFSKA had a pIC50 of 4.85.
With GAMVEYVST, the pIC50 was 4.61.
As for DLVKSYSLI, the pIC50 is at most 4.15.
SLVSYIKTT gave a pIC50 of 5.27.
Still for that read-out and setting: with IVLPNKVRI the figure was 4.46; with LQKVLHVTDT, at most 4.15; with KLIIDREVV, 5.18.
The same measure, in the same setting: with DTQQHPIVVL the figure was at most 4.15; with GIVLSNTSTA, 4.88.
